Source: publication PMC2094074 (Nucleic Acids Research, 2007)
Values belong to the binder of their own block, whether it stands above or below them.

B1: His-tagged hTDG-ΔC1(1-308) (domain or fragment, human, UniProt Q13569 1-308, looked up)
chain: MEAENAGSYSLQQAQAFYTFPFQQLMAEAPNMAVVNEQQMPEEVPAPAPAQEPVQEAPKGRKRKPRTTEPKQPVEPKKPVESKKSGKSAKSKEKQEKITDTFKVKRKVDRFNGVSEAELLTKTLPDILTFNLDIVIIGINPGLMAAYKGHHYPGPGNHFWKCLFMSGLSEVQLNHMDDHTLPGKYGIGFTNMVERTTPGSKDLSSKEFREGGRILVQKLQKYQPRIAVFNGKCIYEIFSKEVFGVKVKNLEFGLQPHKIPDTETLCYVMPSSSARCAQFPRAQDKVHYYIKLKDLRDQLKGIERNMDV
B2: His-tagged hHus1 expressed in E. coli (natural protein, human, UniProt O60921 1-280, looked up)
chain: MKFRAKIVDGACLNHFTRISNMIAKLAKTCTLRISPDKLNFILCDKLANGGVSMWCELEQENFFNEFQMEGVSAENNEIYLELTSENLSRALKTAQNARALKIKLTNKHFPCLTVSVELLSMSSSSRIVTHDIPIKVIPRKLWKDLQEPVVPDPDVSIYLPVLKTMKSVVEKMKNISNHLVIEANLDGELNLKIETELVCVTTHFKDLGNPPLASESTHEDRNVEHMAEVHIDIRKLLQFLAGQQVNPTKALCNIVNNKMVHFDLLHEDVSLQYFIPALS
B4: GST-hRad1 (natural protein, human, UniProt O60671 1-282, looked up)
chain: MPLLTQQIQDEDDQYSLVASLDNVRNLSTILKAIHFREHATCFATKNGIKVTVENAKCVQANAFIQAGIFQEFKVQEESVTFRINLTVLLDCLSIFGSSPMPGTLTALRMCYQGYGYPLMLFLEEGGVVTVCKINTQEPEETLDFDFCSTNVINKIILQSEGLREAFSELDMTSEVLQITMSPDKPYFRLSTFGNAGSSHLDYPKDSDLMEAFHCNQTQVNRYKISLLKPSTKALVLSCKVSIRTDNRGFLSLQYMIRNEDGQICFVEYYCCPDEEVPESES
B5: GST-hRad9 (natural protein, human, UniProt Q99638 1-391, looked up)
chain: MKCLVTGGNVKVLGKAVHSLSRIGDELYLEPLEDGLSLRTVNSSRSAYACFLFAPLFFQQYQAATPGQDLLRCKILMKSFLSVFRSLAMLEKTVEKCCISLNGRSSRLVVQLHCKFGVRKTHNLSFQDCESLQAVFDPASCPHMLRAPARVLGEAVLPFSPALAEVTLGIGRGRRVILRSYHEEEADSTAKAMVTEMCLGEEDFQQLQAQEGVAITFCLKEFRGLLSFAESANLNLSIHFDAPGRPAIFTIKDSLLDGHFVLATLSDTDSHSQDLGSPERHQPVPQLQAHSTPHPDDFANDDIDSYMIAMETTIGNEGSRVLPSISLSPGPQPPKSPGPHSEEEDEAEPSTVPGTPPPKKFRSLFFGSILAPVRSPQGPSPVLAEDSEGEG

What was measured:
Experiment in all cases: pull-down
GST-hRad9 = target: B5
GST-hTDG (full length) = GST-hTDG (full length) (human, UniProt Q13569 1-410)
[1] = target: B1
[2] = target: His-tagged human thymine DNA glycosylase, full length (hTDG-full, residues 1-410) (human, UniProt Q13569 1-410)
[3] = target: B2
GST-hRad1 = target: B4

Binder: B1
binding result (GST-hRad9): binds

Binder: B2
binding result (GST-hTDG (full length)): binds

binding result [1]: binds
B3: GST-hHus1 (natural protein, human, UniProt O60921 1-280, looked up)
chain: MKFRAKIVDGACLNHFTRISNMIAKLAKTCTLRISPDKLNFILCDKLANGGVSMWCELEQENFFNEFQMEGVSAENNEIYLELTSENLSRALKTAQNARALKIKLTNKHFPCLTVSVELLSMSSSSRIVTHDIPIKVIPRKLWKDLQEPVVPDPDVSIYLPVLKTMKSVVEKMKNISNHLVIEANLDGELNLKIETELVCVTTHFKDLGNPPLASESTHEDRNVEHMAEVHIDIRKLLQFLAGQQVNPTKALCNIVNNKMVHFDLLHEDVSLQYFIPALS

Binder: B4
binding result [2]: binds
binding result [1]: binds

Binder: B5
binding result [2]: binds

binding result [3]: binds
B6: GST-hTDG-N(1-124) (domain or fragment, human, UniProt Q13569 1-124, looked up)
chain: MEAENAGSYSLQQAQAFYTFPFQQLMAEAPNMAVVNEQQMPEEVPAPAPAQEPVQEAPKGRKRKPRTTEPKQPVEPKKPVESKKSGKSAKSKEKQEKITDTFKVKRKVDRFNGVSEAELLTKTL

binding result (GST-hRad1): binds
binding result (GST-hRad9): binds
B7: His-tagged hTDG(67-308) (domain or fragment, human, UniProt Q13569 67-308, looked up)
chain: TTEPKQPVEPKKPVESKKSGKSAKSKEKQEKITDTFKVKRKVDRFNGVSEAELLTKTLPDILTFNLDIVIIGINPGLMAAYKGHHYPGPGNHFWKCLFMSGLSEVQLNHMDDHTLPGKYGIGFTNMVERTTPGSKDLSSKEFREGGRILVQKLQKYQPRIAVFNGKCIYEIFSKEVFGVKVKNLEFGLQPHKIPDTETLCYVMPSSSARCAQFPRAQDKVHYYIKLKDLRDQLKGIERNMDV
